Experimental data: patent US20260116951A1

Key:
[1] = biological target: Human CD200R, full length, on transduced U937 cells (U937-CD200R) (human) (UniProt Q8TD46); assay: cell-based or functional assay
[2] = biological target: Recombinant Human CD200R, His-tagged (Creative Biomart CD200R1-320H) (human) (UniProt Q8TD46); assay: SPR, CD200R flowed over immobilized CD200-Fc, 25 C, 1:1 fit
[3] = biological target: Recombinant Cyno CD200R, His-tagged (Creative Biomart CD200R1-3483C) (cynomolgus monkey); assay: SPR, cyno CD200R1 flowed over immobilized CD200-Fc, 25 C, 1:1 fit
[4] = biological target: Recombinant Human CD200R, His-tagged (Creative Biomart CD200R1-320H) (human) (UniProt Q8TD46); assay: SPR (BIAcore T200), CD200-Fc captured on anti-human Fc, CD200R flowed, 25 C, 1:1 fit
[5] = biological target: Recombinant Cyno CD200R, His-tagged (Creative Biomart CD200R1-3483C) (cynomolgus monkey); assay: SPR (BIAcore T200), CD200-Fc captured on anti-human Fc, cyno CD200R flowed, 25 C, 1:1 fit
[6] = biological target: Recombinant Human CD200R, His-tagged (Creative Biomart CD200R1-320H) (human) (UniProt Q8TD46); assay: SPR (BIAcore T200), CD200-Fc captured on anti-human Fc, CD200R flowed, 25 C, 1:1 fit, mean of two runs
[7] = biological target: Recombinant Human CD200R, His-tagged (Creative Biomart CD200R1-320H) (human) (UniProt Q8TD46); assay: SPR, CD200R flowed over immobilized CD200-Fc, 25 C, 1:1 fit, mean of 2 experiments with standard deviation
[8] = biological target: Recombinant Cyno CD200R, His-tagged (Creative Biomart CD200R1-3483C) (cynomolgus monkey); assay: SPR (BIAcore T200), CD200-Fc captured on anti-human Fc, cyno CD200R flowed, 25 C, 1:1 fit, mean of two runs
[9] = biological target: Recombinant Cyno CD200R, His-tagged (Creative Biomart CD200R1-3483C) (cynomolgus monkey); assay: SPR, cyno CD200R1 flowed over immobilized CD200-Fc, 25 C, 1:1 fit, mean of 2 experiments with standard deviation
[10] = biological target: Recombinant Human CD200R, His-tagged (Creative Biomart CD200R1-320H) (human) (UniProt Q8TD46); assay: SPR (BIAcore), DS-155 captured (0.5 ug/mL), HuCD200R1 flowed at 500 nM to 31.25 nM, 25 C, 1:1 Binding model, run 1
[11] = biological target: Recombinant Human CD200R, His-tagged (Creative Biomart CD200R1-320H) (human) (UniProt Q8TD46); assay: SPR (BIAcore), DS-155 captured (0.5 ug/mL), HuCD200R1 flowed at 500 nM to 31.25 nM, 25 C, 1:1 Binding model, run 2
[12] = biological target: Recombinant Cyno CD200R, His-tagged (Creative Biomart CD200R1-3483C) (cynomolgus monkey); assay: SPR (BIAcore), DS-155 captured (0.5 ug/mL), CynoCD200R1 flowed at 1000 nM to 62.5 nM, 25 C, 1:1 Binding model, run 1
[13] = biological target: Recombinant Cyno CD200R, His-tagged (Creative Biomart CD200R1-3483C) (cynomolgus monkey); assay: SPR (BIAcore), DS-155 captured (0.5 ug/mL), CynoCD200R1 flowed at 1000 nM to 62.5 nM, 25 C, 1:1 Binding model, run 2

Sequence of Recombinant Human CD200R, His-tagged (Creative Biomart CD200R1-320H) (human) (Q8TD46 27-266 limits assumed): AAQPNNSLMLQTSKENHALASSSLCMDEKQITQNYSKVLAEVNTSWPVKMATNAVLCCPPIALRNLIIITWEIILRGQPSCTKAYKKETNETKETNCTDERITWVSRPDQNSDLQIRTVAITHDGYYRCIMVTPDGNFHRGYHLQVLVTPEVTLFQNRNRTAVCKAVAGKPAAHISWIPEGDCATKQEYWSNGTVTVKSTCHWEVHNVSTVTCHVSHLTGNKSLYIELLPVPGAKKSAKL
Sequence of Human CD200R, full length, on transduced U937 cells (U937-CD200R) (human) (Q8TD46 25-348): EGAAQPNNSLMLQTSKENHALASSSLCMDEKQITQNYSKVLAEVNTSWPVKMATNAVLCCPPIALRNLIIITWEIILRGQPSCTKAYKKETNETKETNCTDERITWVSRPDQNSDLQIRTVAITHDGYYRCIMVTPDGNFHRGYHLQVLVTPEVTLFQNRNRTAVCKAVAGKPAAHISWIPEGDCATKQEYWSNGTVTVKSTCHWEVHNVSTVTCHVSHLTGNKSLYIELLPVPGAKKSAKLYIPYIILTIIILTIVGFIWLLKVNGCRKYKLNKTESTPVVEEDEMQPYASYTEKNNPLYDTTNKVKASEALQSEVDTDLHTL

**Q.** For “DS-155 (wild-type human CD200-Fc, IgG4 S228P Fc) (from UniProt P41217 31-232) (Fc fusion)”, which inhibition of LPS stimulated IL-6 release from U937-CD200R cells, IC50 [1] is on record?
**A.** The inhibition of LPS stimulated IL-6 release from U937-CD200R cells, IC50 was 0.18 µg/mL.

**Q.** And the T1/2 [2]?
**A.** The T1/2 was 21.1 s.

**Q.** And the T1/2 [3]?
**A.** The T1/2 was 11.8 s.

**Q.** What about the t½ [4] of the same substance?
**A.** Its t½ is 21.1 s.

**Q.** And the t½ [5]?
**A.** The t½ was 11.8 s.

**Q.** What about the Kd [6] of the same substance?
**A.** Its Kd is 179 nM.

**Q.** What about the koff [6] of the same substance?
**A.** The koff was 0.0326 s⁻¹.

**Q.** What about the kon [6] of the same substance?
**A.** The kon was 183000 M⁻¹ s⁻¹.

**Q.** What about the Kd [7] of the same substance?
**A.** Its Kd is 179 nM.

**Q.** And the Kd [8]?
**A.** Its Kd is 971 nM.

**Q.** And the koff [8]?
**A.** Its koff is 0.0586 s⁻¹.

**Q.** And the kon [8]?
**A.** The kon was 60600 M⁻¹ s⁻¹.

**Q.** And the Kd [9]?
**A.** The Kd was 971 nM.

**Q.** And the Kd [10]?
**A.** The Kd was 174 nM.

**Q.** And the koff [10]?
**A.** Its koff is 0.0324 s⁻¹.

**Q.** And the kon [10]?
**A.** Its kon is 186000 M⁻¹ s⁻¹.

**Q.** And the Kd [11]?
**A.** The Kd was 183 nM.

**Q.** And the kon [11]?
**A.** The kon was 180000 M⁻¹ s⁻¹.

**Q.** What about the Kd [12] of the same substance?
**A.** Its Kd is 888 nM.

**Q.** What about the koff [12] of the same substance?
**A.** Its koff is 0.0564 s⁻¹.

**Q.** And the kon [12]?
**A.** Its kon is 63500 M⁻¹ s⁻¹.

**Q.** What about the Kd [13] of the same substance?
**A.** The Kd was 1050 nM.

**Q.** And the koff [13]?
**A.** The koff was 0.0608 s⁻¹.

**Q.** What about the kon [13] of the same substance?
**A.** Its kon is 57600 M⁻¹ s⁻¹.
